The DeepSol protein solubility set

Test: soluble on expression in E. coli; label from the status in PepcDB or PDB records

Row | Sequence | soluble on expression in E. coli
1 | MAHHHHHHMKDVDTARVLSELVNALQRVTAQPAWNTVQEPKAITFRLEDLFSTPNSVLASAATEGDSPEHGGNASEMNSPDMAAASFVNSGVGDGLGETATPLAPLREMSDHFSSNKKYAEEGLQDVFTMLQRLIDGTYSTAGCAALACMGQEIDKMITLMRPVALIDMRAAVYMNSLCSNIAAAKESRMQLNAPLVWDFVTNTVQTYITDHPVLYTALVAISNLSYLKDLKLTREDCGVLSRLIYPVYTEVHIVEVWAAMICNLTAHHPETVQVFLELGVVEVLERLVLYFGEEGRTVIRCLQCLSNLSMGFITGHSPALAE | not soluble
2 | MAHHHHHHMKENVLINENIKAHEEKGNLNDDKRDEHMISLRGLNIYYKDKLENLNTIKNIDNNKKFIKLVLEDVDLKPEEIMKHILHLLKEKTSLHTILEINKQKYKIKYKEIIPDDHILFTQNIQNITNCKYALLGILKVSKYTKKNTFNEKLLQSWQDVPMEF | not soluble
3 | MAHHHHHHMKNIFKYKNRLTFFRKGFSTTNKPKVEIKKTILYDSHKKNNAIFKIQHGFYLPDEYKDITLITSNLHTRTNCSLFDYTYRPILKISGEDKINFIEKYVGSDIKGLWENECRISLLLNDKGGIIDDIMIILREKYLLLYLNIQCKEKVYKYLKDKLLENGKLQVQIEEFTSHSSICIQGSKSSDVLKELIDYNNESVETNLDNCSFMSSTLTKINKIDNCILNRYTCTGEDGFDILIPNKYVNDLYNLILKNELVKPGGLAVQNTLRLESGFCEYGKDINEDITPIESNYKWSLGQRRLKELNFNGAHIIMDQIKNGTKIKRVGILINTNIVPKENTKIYSHENAEQIIGYITSSVFSPVLQKPICMGYVKSEYAHINNLIKVDCLNKLEIAQITKLPFVPLSIYKL | not soluble
4 | MAHHHHHHMKPKMRRESAQPCLTCMPAILNKSVCPIHKIYSDNTLLLFMVIDCYNKMCSKKISTRNANDYKKLWNDNKLLICYSHGVLFHMHTRTSKTCFPQNYFSSNNDNCECGVHQVRFKTLKAQVHIIIPAILTGTTIV | not soluble
5 | MAHHHHHHMKPYVWPTSDEAPPPSGRRTFPRQFQVNHGTLNLFSPAVPESQQCNTRAAAGSFSITGQRGILHQRNHNKESTATREFPVNGLRRVSAPQRSETPHGIRHIRDAAGAQQHVQVVNITDAYKDPMQMGPRRTGVKCLPQKSESDDVSVALSFAGSRQQLSARVLAAPVGKPSRPSLYPIDYSDQERFAQAVRDHAQKRTRGLAEFYVQLVRDTVGSVTSSTPKPAIVPWSLDQEPTRRVLTLGRCRDQLVALTAMPISLSDLALLLWGAGNGEVANSDSLTSDCDKDASLPLNCRPVPFCDFAAAFGQNSSDVRLARMKV | not soluble
6 | MAHHHHHHMKQIDQLIIEEADENTIIPYYLSNLLTNASNPVVFMDVNLGNHFLGKFKFELFQNIVPKTSENFRQFCTGEYKVNNLPVGYKNTTFHRVIKEFMIQGGDFVNYNGSGSLSIYGEIFEDENFDVKHDQEGLLSMANSGPNTNGCQFFITTKKCEWLDGKNVVFGRIIDSDSLILLKKIENVSVTPYIYKPKIPINIVECGEL | not soluble
7 | MAHHHHHHMKQRTNVALKRWYASERTKKANPLILISNSHNIHFNLSLENFLLNNYSDLLKHLNGNSIERYDDPVLFLWRNNRSIIIGKNQNIWSECNLENIKEDNVLVARRFTGGGAVYHDLQNLCFTFLNNSLSTDDNFSIILKTLKRHFAIEAKRQGRNDITVNDRKCSGSAFKKMKNGFLHHGTIMVNLEKDVLSRYLTPDKIKYTKHGVSSVNARTINLKEINPKITCQDLCYALIKEFQAFYKNGVPNEGGEASCSATLKVEDYTGGEKIANPPEQVSSNRNANLSEGEKSVANLIDHSSPILKHFNIHYVDTNESITKNPEFLKYLNLLKDWDWCYGKSPKFQNRLCKQFPFGKFEVFFNVSDGMIKDGNVFSDCLDINLVEQLKFIFNNDVRYSKDSVASFLRGLQVENEGSLREVTDWILQEL | not soluble
8 | MAHHHHHHMLFPTACPDLIAREHLFNTLLNPVVYRWMWGRLRSCFSDSEVMAYTNNLSCVSHSVVCELVNKYPHLHQHVFAGPVTVLNERKEAAVTAHAEPLMVDPVGWTRALAEVCRRDYDVQFALGERLEDAVTYLKYDVESTRSIRVSKPDPSHPEQRLFASEGYDVVILAAGASTGTMTLPNSRLPVLGLSGLSAVVQQPSGALKDAVWSLFQCRPHRSPAAAASSSSPEVDAPSSHEGVADPLARPAPGTLALLSSHCSPVWLHVAQ | soluble
